From patent US20250090876A1 (MEDICAL COLLEGE OF WISCONSIN, published 2025)

Tests used:
purified CRR9 ectodomain = target: T1, purified CRR9 ectodomain (human, UniProt Q5R7B1 32-284 (Pongo abelii entry), limits assumed); assay: ELISA with purified CRR9 ectodomain
T1 construct: also called CLPTM1L ectodomain
T1 sequence: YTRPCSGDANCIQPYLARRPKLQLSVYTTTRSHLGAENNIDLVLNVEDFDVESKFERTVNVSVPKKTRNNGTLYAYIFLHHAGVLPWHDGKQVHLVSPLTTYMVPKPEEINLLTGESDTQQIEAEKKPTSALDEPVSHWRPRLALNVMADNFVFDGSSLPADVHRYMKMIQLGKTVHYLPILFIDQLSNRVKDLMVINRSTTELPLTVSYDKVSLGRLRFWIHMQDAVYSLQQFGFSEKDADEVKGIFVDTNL

mouse CLPTM1L protein = target: T2, mouse CLPTM1L protein (mouse, UniProt Q8BXA5 1-539); assay: flow cytometry on live ID8-luc mouse ovarian tumor cells (102-5 primary by the legend of FIG. 31A)
T2 construct: whole, on cells; also called the mouse protein
T2 sequence (looked up): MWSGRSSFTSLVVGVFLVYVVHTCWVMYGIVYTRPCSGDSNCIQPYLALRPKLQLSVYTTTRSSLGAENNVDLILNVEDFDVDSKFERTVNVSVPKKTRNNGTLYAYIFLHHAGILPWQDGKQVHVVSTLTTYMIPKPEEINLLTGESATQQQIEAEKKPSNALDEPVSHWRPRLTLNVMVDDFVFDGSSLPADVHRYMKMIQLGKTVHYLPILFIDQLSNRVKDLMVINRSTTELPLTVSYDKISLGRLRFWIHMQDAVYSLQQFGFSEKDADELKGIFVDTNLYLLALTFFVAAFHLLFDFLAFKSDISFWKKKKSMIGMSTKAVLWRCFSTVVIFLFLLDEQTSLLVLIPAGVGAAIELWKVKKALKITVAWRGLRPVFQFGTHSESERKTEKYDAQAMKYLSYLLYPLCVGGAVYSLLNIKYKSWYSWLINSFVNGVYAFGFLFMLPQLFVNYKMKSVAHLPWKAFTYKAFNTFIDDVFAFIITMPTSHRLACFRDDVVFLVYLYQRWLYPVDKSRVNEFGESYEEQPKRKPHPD
Procedure: (E) Final relative mean volumes of SL3 and SL3cis xenograft tumors 24 days post-inoculation. […] (F) Mean volumes of SL3 and SL3cis xenograft tumors relative to group mean volume after sorting from days 0 to 24 post-inoculation. *p<0.05, **p<0.005, ***p<0.0005. Error bars represent standard error of the mean.
Flow cytometry was conducted per AbCam protocol for indirect flow cytometry. Tumor cells were harvested by trypsinization and suspended in cold PBS, 10% FBS, 0.05% NaN₃. 100 μL of cell suspension was added to 12×75 mm polystyrene tubes. 10 μg/mL of primary antibody diluted in PBS 3% BSA was added and tubes were incubated at 4° C. in the dark for 45 minutes. After washing 3 times in cold PBS, cells were resuspended in rabbit anti-Human Fc (H&L)-Alexafluor 488 (Abcam) in PBS 3% BSA and incubated at 4 C in the dark for 30 minutes. After washing 3 times in cold PBS, cells were suspended in 500 μL cold PBS, 3% BSA, 0.05% NaN₃ and analyzed on an Accuri C6 flow cytometer. Cells were gated for live cells based on scatter and fluorescence was plotted on a histogram using Flowing Software 2 (Turku Bioimaging).

[1] = target: T3, human CLPTM1L/CRR9 protein (human, UniProt Q96KA5 1-538); assay: on-cell detection of fluorescently labeled 102-5 on live Panc1 tumor cells, with or without competitors (excess 10-2 mouse ascites or excess purified CRR9 ectodomain)
T3 construct: also called Cisplatin Resistance Related Protein-9; Cleft-Lip and Palate Transmembrane Protein-Like Protein 1
T3 sequence: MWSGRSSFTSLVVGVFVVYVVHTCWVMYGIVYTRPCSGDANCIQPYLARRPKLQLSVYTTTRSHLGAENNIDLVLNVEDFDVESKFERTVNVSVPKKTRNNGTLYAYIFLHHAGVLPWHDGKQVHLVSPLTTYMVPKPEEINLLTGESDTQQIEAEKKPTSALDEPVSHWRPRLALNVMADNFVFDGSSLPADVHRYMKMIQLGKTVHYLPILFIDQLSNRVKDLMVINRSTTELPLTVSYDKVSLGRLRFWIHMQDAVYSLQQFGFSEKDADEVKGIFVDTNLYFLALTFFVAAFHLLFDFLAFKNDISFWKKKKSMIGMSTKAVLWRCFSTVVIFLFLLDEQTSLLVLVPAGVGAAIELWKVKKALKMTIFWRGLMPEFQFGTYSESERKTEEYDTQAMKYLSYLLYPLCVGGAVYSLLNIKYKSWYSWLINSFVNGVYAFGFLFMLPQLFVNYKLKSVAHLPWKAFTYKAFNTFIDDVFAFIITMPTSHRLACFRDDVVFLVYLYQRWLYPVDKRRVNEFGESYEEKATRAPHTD

B1: 102-5 full-length human IgG1 anti-CLPTM1L (antibody, V domains shown)
VH: EVQLLESGGGLVQPGGSLRLSCAASGFSFSSYEMNWVRQAPGKGPEWISYISSGGGTIYYADSVRGRFTISRDNSNNTLYLQMNSLRPDDTAIYYCARDRGRKWLQLLFDSWGQGTLVTVSS
VL: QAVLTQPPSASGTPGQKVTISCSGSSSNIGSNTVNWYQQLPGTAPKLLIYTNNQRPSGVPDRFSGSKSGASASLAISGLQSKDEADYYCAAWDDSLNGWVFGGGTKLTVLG
notes: also called ESS102-5
**Q.** B1 was tested. Which Kd (purified CRR9 ectodomain) did it give?
**A.** 1 nM

**Q.** Does B1 bind (mouse CLPTM1L protein)?
**A.** binds

**Q.** Does B1 bind [1]?
**A.** binds
